Source: the supplement of paper PMC9112550, “Optimization of the antimicrobial peptide Bac7 by deep mutational scanning” (BMC Biology, 2022)

Tested on: Escherichia coli TOP10
Assay: shrunken log2 fold change of peptide-encoding DNA abundance (4.5 h post-induction vs induction); higher = less antimicrobial activity (less host growth inhibition)
Conditions: time post-induction: 4.5 h; library: site-saturation at positions 5, 18, 19, 20
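Further: peptides expressed intracellularly from a pBAD plasmid library in pooled LB shake-flask culture, induced with 0.3% L-arabinose, DNA abundance read by NGS, three biological replicates, DESeq2 with apeglm shrinkage.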

RRIRTRPPRLPRPRPRPSRWPRP
shrunken log2 fold change: 0.0135

RRIRTRPPRLPRPRPRPSSCPRP
shrunken log2 fold change: -0.222

RRIRTRPPRLPRPRPRPSTFPRP
shrunken log2 fold change: -0.49

RRIRTRPPRLPRPRPRPSVGPRP
shrunken log2 fold change: -0.055

RRIRTRPPRLPRPRPRPSVTPRP
shrunken log2 fold change: -0.0217

RRIRTRPPRLPRPRPRPSWMPRP
shrunken log2 fold change: -0.466

RRIRTRPPRLPRPRPRPSWYPRP
shrunken log2 fold change: -1.12

RRIRTRPPRLPRPRPRPSYHPRP
shrunken log2 fold change: -0.833

RRIRTRPPRLPRPRPRPSYKPRP
shrunken log2 fold change: -0.594

RRIRTRPPRLPRPRPRPSYTPRP
shrunken log2 fold change: -0.761

RRIRTRPPRLPRPRPRPTCFPRP
shrunken log2 fold change: -0.35

RRIRTRPPRLPRPRPRPTDDPRP
shrunken log2 fold change: -0.078

RRIRTRPPRLPRPRPRPTEDPRP
shrunken log2 fold change: 0.196

RRIRTRPPRLPRPRPRPTFTPRP
shrunken log2 fold change: 0.00867

RRIRTRPPRLPRPRPRPTGAPRP
shrunken log2 fold change: 0.323

RRIRTRPPRLPRPRPRPTGQPRP
shrunken log2 fold change: 0.031

RRIRTRPPRLPRPRPRPTHFPRP
shrunken log2 fold change: 0.301

RRIRTRPPRLPRPRPRPTHPPRP
shrunken log2 fold change: 0.312

RRIRTRPPRLPRPRPRPTHRPRP
shrunken log2 fold change: -0.185

RRIRTRPPRLPRPRPRPTKHPRP
shrunken log2 fold change: -0.258

RRIRTRPPRLPRPRPRPTLWPRP
shrunken log2 fold change: 0.475

RRIRTRPPRLPRPRPRPTMGPRP
shrunken log2 fold change: 0.0301

RRIRTRPPRLPRPRPRPTMIPRP
shrunken log2 fold change: -0.413

RRIRTRPPRLPRPRPRPTMMPRP
shrunken log2 fold change: -0.14

RRIRTRPPRLPRPRPRPTMQPRP
shrunken log2 fold change: 0.0459

RRIRTRPPRLPRPRPRPTMTPRP
shrunken log2 fold change: -0.0413

RRIRTRPPRLPRPRPRPTNIPRP
shrunken log2 fold change: -0.519

RRIRTRPPRLPRPRPRPTPGPRP
shrunken log2 fold change: 0.296

RRIRTRPPRLPRPRPRPTPIPRP
shrunken log2 fold change: 0.139

RRIRTRPPRLPRPRPRPTPVPRP
shrunken log2 fold change: 0.313

RRIRTRPPRLPRPRPRPTQVPRP
shrunken log2 fold change: 0.131

RRIRTRPPRLPRPRPRPTSVPRP
shrunken log2 fold change: 0.0486

RRIRTRPPRLPRPRPRPTVHPRP
shrunken log2 fold change: -0.199

RRIRTRPPRLPRPRPRPTVKPRP
shrunken log2 fold change: 3.07

RRIRTRPPRLPRPRPRPTWAPRP
shrunken log2 fold change: -0.117

RRIRTRPPRLPRPRPRPTWSPRP
shrunken log2 fold change: 0.256

RRIRTRPPRLPRPRPRPVAEPRP
shrunken log2 fold change: 0.191

RRIRTRPPRLPRPRPRPVCRPRP
shrunken log2 fold change: 0.0309

RRIRTRPPRLPRPRPRPVGKPRP
shrunken log2 fold change: 0.0504

RRIRTRPPRLPRPRPRPVHEPRP
shrunken log2 fold change: 0.247

RRIRTRPPRLPRPRPRPVHHPRP
shrunken log2 fold change: -0.321

RRIRTRPPRLPRPRPRPVKSPRP
shrunken log2 fold change: -0.157

RRIRTRPPRLPRPRPRPVLHPRP
shrunken log2 fold change: -0.139

RRIRTRPPRLPRPRPRPVLKPRP
shrunken log2 fold change: 0.209

RRIRTRPPRLPRPRPRPVLLPRP
shrunken log2 fold change: -0.127

RRIRTRPPRLPRPRPRPVMFPRP
shrunken log2 fold change: 0.32

RRIRTRPPRLPRPRPRPVNFPRP
shrunken log2 fold change: -0.484

RRIRTRPPRLPRPRPRPVNSPRP
shrunken log2 fold change: -0.342

RRIRTRPPRLPRPRPRPVPLPRP
shrunken log2 fold change: -0.145

RRIRTRPPRLPRPRPRPVQYPRP
shrunken log2 fold change: -0.246

RRIRTRPPRLPRPRPRPVRGPRP
shrunken log2 fold change: 0.784

RRIRTRPPRLPRPRPRPVRIPRP
shrunken log2 fold change: -0.0431

RRIRTRPPRLPRPRPRPVSGPRP
shrunken log2 fold change: -0.0612

RRIRTRPPRLPRPRPRPVSSPRP
shrunken log2 fold change: 0.651

RRIRTRPPRLPRPRPRPVSVPRP
shrunken log2 fold change: -0.0287

RRIRTRPPRLPRPRPRPVSWPRP
shrunken log2 fold change: 0.522

RRIRTRPPRLPRPRPRPVVQPRP
shrunken log2 fold change: -0.062

RRIRTRPPRLPRPRPRPVWEPRP
shrunken log2 fold change: 0.264

RRIRTRPPRLPRPRPRPVWQPRP
shrunken log2 fold change: 0.256

RRIRTRPPRLPRPRPRPVYMPRP
shrunken log2 fold change: -0.382

RRIRTRPPRLPRPRPRPWAPPRP
shrunken log2 fold change: 0.154

RRIRTRPPRLPRPRPRPWDYPRP
shrunken log2 fold change: -0.139

RRIRTRPPRLPRPRPRPWHIPRP
shrunken log2 fold change: -0.115

RRIRTRPPRLPRPRPRPWIYPRP
shrunken log2 fold change: -0.0134

RRIRTRPPRLPRPRPRPWLEPRP
shrunken log2 fold change: 0.218

RRIRTRPPRLPRPRPRPWLSPRP
shrunken log2 fold change: -0.272

RRIRTRPPRLPRPRPRPWLTPRP
shrunken log2 fold change: -0.0866

RRIRTRPPRLPRPRPRPWLWPRP
shrunken log2 fold change: 0.202

RRIRTRPPRLPRPRPRPWMEPRP
shrunken log2 fold change: -0.326

RRIRTRPPRLPRPRPRPWPIPRP
shrunken log2 fold change: 0.00716

RRIRTRPPRLPRPRPRPWPLPRP
shrunken log2 fold change: 0.0506

RRIRTRPPRLPRPRPRPWPMPRP
shrunken log2 fold change: 0.44

RRIRTRPPRLPRPRPRPWRNPRP
shrunken log2 fold change: -0.253

RRIRTRPPRLPRPRPRPWSHPRP
shrunken log2 fold change: -0.113

RRIRTRPPRLPRPRPRPWSYPRP
shrunken log2 fold change: -1.86

RRIRTRPPRLPRPRPRPWTGPRP
shrunken log2 fold change: -0.352

RRIRTRPPRLPRPRPRPWTQPRP
shrunken log2 fold change: 0.0256

RRIRTRPPRLPRPRPRPWTWPRP
shrunken log2 fold change: -0.0696

RRIRTRPPRLPRPRPRPWVGPRP
shrunken log2 fold change: -0.155

RRIRTRPPRLPRPRPRPWYPPRP
shrunken log2 fold change: -0.255

RRIRTRPPRLPRPRPRPWYYPRP
shrunken log2 fold change: -0.117

RRIRTRPPRLPRPRPRPYAVPRP
shrunken log2 fold change: -0.331

RRIRTRPPRLPRPRPRPYCEPRP
shrunken log2 fold change: -0.416

RRIRTRPPRLPRPRPRPYDMPRP
shrunken log2 fold change: 0.0197

RRIRTRPPRLPRPRPRPYEMPRP
shrunken log2 fold change: -0.482

RRIRTRPPRLPRPRPRPYEWPRP
shrunken log2 fold change: -0.139

RRIRTRPPRLPRPRPRPYFIPRP
shrunken log2 fold change: -0.872

RRIRTRPPRLPRPRPRPYFWPRP
shrunken log2 fold change: -0.299

RRIRTRPPRLPRPRPRPYHCPRP
shrunken log2 fold change: 0.0119

RRIRTRPPRLPRPRPRPYIHPRP
shrunken log2 fold change: -0.779

RRIRTRPPRLPRPRPRPYLKPRP
shrunken log2 fold change: -0.27

RRIRTRPPRLPRPRPRPYLQPRP
shrunken log2 fold change: -0.525

RRIRTRPPRLPRPRPRPYNCPRP
shrunken log2 fold change: -0.168

RRIRTRPPRLPRPRPRPYPAPRP
shrunken log2 fold change: -0.277

RRIRTRPPRLPRPRPRPYPPPRP
shrunken log2 fold change: -0.203

RRIRTRPPRLPRPRPRPYRHPRP
shrunken log2 fold change: -0.0901

RRIRTRPPRLPRPRPRPYRKPRP
shrunken log2 fold change: -0.0329

RRIRTRPPRLPRPRPRPYRMPRP
shrunken log2 fold change: -0.128

RRIRTRPPRLPRPRPRPYSIPRP
shrunken log2 fold change: 0.015

RRIRTRPPRLPRPRPRPYSVPRP
shrunken log2 fold change: -0.027

RRIRTRPPRLPRPRPRPYTVPRP
shrunken log2 fold change: -0.0341

RRIRTRPPRLPRPRPRPYYDPRP
shrunken log2 fold change: -0.24

RRIRTRPPRLPRPRPRPYYWPRP
shrunken log2 fold change: -0.0825

RRIRVRPPRLPRPRPRPAAAPRP
shrunken log2 fold change: 0.69

RRIRVRPPRLPRPRPRPAAGPRP
shrunken log2 fold change: 0.154

RRIRVRPPRLPRPRPRPACAPRP
shrunken log2 fold change: 0.322

RRIRVRPPRLPRPRPRPAECPRP
shrunken log2 fold change: -0.0646

RRIRVRPPRLPRPRPRPAENPRP
shrunken log2 fold change: 0.15

RRIRVRPPRLPRPRPRPAGKPRP
shrunken log2 fold change: -0.308

RRIRVRPPRLPRPRPRPAGLPRP
shrunken log2 fold change: 0.192

RRIRVRPPRLPRPRPRPAIGPRP
shrunken log2 fold change: 0.045

RRIRVRPPRLPRPRPRPAIPPRP
shrunken log2 fold change: -0.356

RRIRVRPPRLPRPRPRPALAPRP
shrunken log2 fold change: 0.484

RRIRVRPPRLPRPRPRPANWPRP
shrunken log2 fold change: 0.224

RRIRVRPPRLPRPRPRPAPGPRP
shrunken log2 fold change: 0.472

RRIRVRPPRLPRPRPRPAQEPRP
shrunken log2 fold change: 0.0593

RRIRVRPPRLPRPRPRPAREPRP
shrunken log2 fold change: 0.254

RRIRVRPPRLPRPRPRPARYPRP
shrunken log2 fold change: 0.0291

RRIRVRPPRLPRPRPRPATGPRP
shrunken log2 fold change: 0.119

RRIRVRPPRLPRPRPRPATHPRP
shrunken log2 fold change: -0.0884

RRIRVRPPRLPRPRPRPATIPRP
shrunken log2 fold change: -0.101

RRIRVRPPRLPRPRPRPATKPRP
shrunken log2 fold change: 0.153

RRIRVRPPRLPRPRPRPAVFPRP
shrunken log2 fold change: 0.265

RRIRVRPPRLPRPRPRPAVMPRP
shrunken log2 fold change: -0.0705

RRIRVRPPRLPRPRPRPAWVPRP
shrunken log2 fold change: 0.459

RRIRVRPPRLPRPRPRPAYNPRP
shrunken log2 fold change: -0.394

RRIRVRPPRLPRPRPRPAYPPRP
shrunken log2 fold change: -0.179

RRIRVRPPRLPRPRPRPAYYPRP
shrunken log2 fold change: -0.616

RRIRVRPPRLPRPRPRPCEFPRP
shrunken log2 fold change: -0.242

RRIRVRPPRLPRPRPRPCFDPRP
shrunken log2 fold change: -0.121

RRIRVRPPRLPRPRPRPCGDPRP
shrunken log2 fold change: -0.18

RRIRVRPPRLPRPRPRPCHEPRP
shrunken log2 fold change: -0.378

RRIRVRPPRLPRPRPRPCHQPRP
shrunken log2 fold change: -0.483

RRIRVRPPRLPRPRPRPCIYPRP
shrunken log2 fold change: -0.533

RRIRVRPPRLPRPRPRPCKFPRP
shrunken log2 fold change: 0.01

RRIRVRPPRLPRPRPRPCKRPRP
shrunken log2 fold change: -0.196

RRIRVRPPRLPRPRPRPCPSPRP
shrunken log2 fold change: -0.0233

RRIRVRPPRLPRPRPRPCQEPRP
shrunken log2 fold change: -0.68

RRIRVRPPRLPRPRPRPCRAPRP
shrunken log2 fold change: 0.0373

RRIRVRPPRLPRPRPRPCRTPRP
shrunken log2 fold change: -1.03

RRIRVRPPRLPRPRPRPCSPPRP
shrunken log2 fold change: -0.137

RRIRVRPPRLPRPRPRPCYDPRP
shrunken log2 fold change: 0.0557

RRIRVRPPRLPRPRPRPCYVPRP
shrunken log2 fold change: -0.0957

RRIRVRPPRLPRPRPRPDADPRP
shrunken log2 fold change: 0.793

RRIRVRPPRLPRPRPRPDCCPRP
shrunken log2 fold change: -0.0439

RRIRVRPPRLPRPRPRPDCNPRP
shrunken log2 fold change: -0.497

RRIRVRPPRLPRPRPRPDCPPRP
shrunken log2 fold change: -0.104

RRIRVRPPRLPRPRPRPDCQPRP
shrunken log2 fold change: 0.00516

RRIRVRPPRLPRPRPRPDDLPRP
shrunken log2 fold change: -0.0407

RRIRVRPPRLPRPRPRPDEDPRP
shrunken log2 fold change: 0.185
